# Assay results as given in patent US20200231684A1 (published 2020).
# T1: human IL-1R1 (human, UniProt P14778 18-336, limits assumed)
# T1 construct: also called IL-1RI
# T1 sequence (looked up): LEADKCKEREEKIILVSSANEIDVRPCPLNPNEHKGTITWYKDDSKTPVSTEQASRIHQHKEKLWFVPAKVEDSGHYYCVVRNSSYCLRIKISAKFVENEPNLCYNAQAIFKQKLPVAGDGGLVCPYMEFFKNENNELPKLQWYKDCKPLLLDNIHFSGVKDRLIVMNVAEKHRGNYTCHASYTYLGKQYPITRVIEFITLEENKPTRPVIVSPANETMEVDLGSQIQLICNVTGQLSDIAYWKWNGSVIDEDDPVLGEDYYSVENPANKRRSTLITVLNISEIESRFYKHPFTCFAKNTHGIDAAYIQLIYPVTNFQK
# T2: mouse IL-36R (mouse, UniProt Q9ERS7 22-338)
# T2 sequence (looked up): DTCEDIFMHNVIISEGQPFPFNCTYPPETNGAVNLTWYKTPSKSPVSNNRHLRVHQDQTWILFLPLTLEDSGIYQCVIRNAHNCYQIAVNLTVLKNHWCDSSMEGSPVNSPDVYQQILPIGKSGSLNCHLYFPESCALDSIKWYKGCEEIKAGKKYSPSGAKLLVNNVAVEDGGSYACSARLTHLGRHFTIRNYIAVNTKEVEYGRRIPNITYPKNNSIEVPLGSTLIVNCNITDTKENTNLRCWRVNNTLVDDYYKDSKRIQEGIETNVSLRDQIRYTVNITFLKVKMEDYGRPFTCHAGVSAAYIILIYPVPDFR
# T3: human IL-36R on cells (human, UniProt Q9HB29 20-575)
# T3 sequence (looked up): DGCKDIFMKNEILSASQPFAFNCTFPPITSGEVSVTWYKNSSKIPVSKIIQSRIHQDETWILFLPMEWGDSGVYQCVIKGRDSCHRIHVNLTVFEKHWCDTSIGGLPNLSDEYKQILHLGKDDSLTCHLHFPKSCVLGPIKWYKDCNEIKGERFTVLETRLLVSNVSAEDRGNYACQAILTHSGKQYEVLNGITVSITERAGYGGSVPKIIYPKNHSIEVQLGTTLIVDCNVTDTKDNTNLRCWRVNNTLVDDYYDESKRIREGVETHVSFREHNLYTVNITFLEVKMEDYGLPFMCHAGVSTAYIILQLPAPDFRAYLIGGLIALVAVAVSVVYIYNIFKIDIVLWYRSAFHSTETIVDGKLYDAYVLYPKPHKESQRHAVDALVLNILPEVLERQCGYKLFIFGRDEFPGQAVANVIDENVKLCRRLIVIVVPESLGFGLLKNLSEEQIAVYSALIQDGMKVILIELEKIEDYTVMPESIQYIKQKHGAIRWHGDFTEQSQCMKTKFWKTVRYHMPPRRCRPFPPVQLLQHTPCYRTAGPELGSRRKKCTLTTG
# Columns and labels:
# [1] = target: T1, human IL-1R1; experiment: BLI (Fortebio Octet), antibody injected over antigen surface
# Protocol: (§1) B) Molecular selectivity over mouse IL-36R and human IL-1R1 The mouse and chimeric anti-IL-36R antibodies were also injected over either a mouse IL-36R or a human IL-1R1 surface at a concentration of 100 nM. The binding signal to mouse IL-36R and to human IL-1R1 for these antibodies measured using the Fortebio Octet (Fortebio, Menlo Park, Calif.) is zero, which indicates these antibodies selectively bind to human IL-36R.
# [2] = target: T2, mouse IL-36R; experiment: as above
# Protocol: as §1
# [3] = target: T3, human IL-36R on cells; experiment: cell-based or functional assay
# [4] = target: T3, human IL-36R on cells; experiment: cell-based or functional assay; remark: listed apart in the source
Binder,binding result [1],binding result [2],"IC90, IL-8 release, NCI/ADR-RES cells, trun-IL-36a [3] [nM]","IC90, IL-8 release, NCI/ADR-RES cells, trun-IL-36b [3] [nM]","IC90, IL-8 release, NCI/ADR-RES cells, trun-IL-36g [3] [nM]","IC90, pNFκB, NCI/ADR-RES cells, trun-IL-36a [3] [nM]","IC90, pNFκB, NCI/ADR-RES cells, trun-IL-36b [3] [nM]","IC90, pNFκB, NCI/ADR-RES cells, trun-IL-36g [3] [nM]","IC90, IL-8 release, human primary keratinocytes (NHK), trun-IL-36a [4] [nM]","IC90, IL-8 release, human primary keratinocytes (NHK), trun-IL-36b [4] [nM]","IC90, IL-8 release, human primary keratinocytes (NHK), trun-IL-36g [4] [nM]","IC90, pNFκB, human primary keratinocytes (NHK), trun-IL-36b [4] [nM]"
"chimeric antibody of 78C8 (antibody, V domains shown, No own label printed; also called chimeric 78C8) VH: QVQLKESGPVLVAPSQSLSITCTVSGFSLTKFGVHWIRQTPGKGLEWLGVIWAGGPTNYNSALMSRLTISKDISQSQVFLRIDSLQTDDTAMYYCAKQIYYSTLVDYWGQGTSVTVSS VL: DVLLTQTPLSLPVSLGDQASISCRSSQNIVHSNGNTYLQWYLQKPGQSPKLLIYKVSNRFSGVPDRFSGSGSGTDFTLKISRVEAEDLGVYYCFQGSHVPFTFGAGTKLELK",no binding (tested: 100 nM),no binding (tested: 100 nM),,,,,,,,,,
"chimeric antibody of 76E10 (antibody, V domains shown, No own label printed; also called chimeric 76E10) VH: QVQLKESGPVLVAPSQSLSITCTVSGFSLTNYGVHWVRQPPGKGLEWLGVIWPVGSTNYNSALMSRLSIHKDNSKSQVFLRMNSLQTDDTAIYYCAKMDWDDFFDYWGQGTTLTVSS VL: DIVMTQSQKFMSATVGGRVNITCKASQNVGRAVAWYQQKPGQSPKLLTHSASNRYTGVPDRFTGSGSGTDFTLTITNMQSEDLADYFCQQYSSYPLTFGAGTKLDLK",no binding (tested: 100 nM),no binding (tested: 100 nM),,,,,,,,,,
"chimeric antibody of 67E7 (antibody, V domains shown, No own label printed; also called chimeric 67E7) VH: EVQLQQSGAEFVRPGASVKFSCTASGFNIKDDYIHWVRQRPEQGLEWVGRIDPANGNTKYAPKFQDKATITADTSSNTAYLQLSSLTSEDTAVYYCAKSFPNNYYSYDDAFAYWGQGTLVTVSA VL: DIQMTQSPASQSASLGESVTFTCLASQTIGTWLGWYQQKPGKSPQLLIYRSTTLADGVPSRFSGSGSGTKFSFKISSLQAADFASYYCQQLYSAPYTFGGGTKLEIR",no binding (tested: 100 nM),no binding (tested: 100 nM),,,,,,,,,,
"chimeric antibody of 89A12 (antibody, V domains shown, No own label printed; also called chimeric 89A12) VH: EVQLQQSGAELVRPGASVRLSCTASGFNIKDDYIHWVRQRPKQGLEWLGRIDPANGNTKYDPRFQDKATITADTSSNTAYLHLSSLTSEDTAVYYCAKSFPDNYYSYDDAFAYWGQGTLVTVSA VL: DIQMTQSPASQSASLGESVTFSCLASQTIGTWLGWYQQKPGKSPQLLIYRATSLADGVPSRFSGSGSGTNFSFKISSLQAEDLASYYCQQLYSGPYTFGGGTKLEIR",no binding (tested: 100 nM),no binding (tested: 100 nM),,,,,,,,,,
"chimeric antibody C33D10 (antibody, V domains shown, Mouse variable domains of 33D10 on human constant domains (hu IgG1KO/kappa); also called chimeric 33D10) VH: QVQLQQSGTELLKPGASVKLSCKASGNTVTSYWMHWVKQRPGQGLEWIGEILPSTGRTNYNENFKGKAMLTVDKSSSTAYMQLSSLASEDSAVYYCTIVYFGNPWFAYWGQGTLVTVSA VL: QIVLTQSPAIMSASLGERVTMTCTASSSVSSSYLHWYQKKPGSSPKLWVYSTSNLASGVPVRFSGSGSGTSYSLTISSMEAEDAATYYCHQHHRSPVTFGSGTKLEMK",no binding (tested: 100 nM),no binding (tested: 100 nM),0.4,0.3,0.2,1.9,2,1.3,,,,
"chimeric antibody C81B4 (antibody, V domains shown, Mouse variable domains of 81B4 on human constant domains (hu IgG1KO/kappa); also called chimeric 81B4) VH: QVQLQQPGADFVRPGASMRLSCKASGYSFTSSWIHWVKQRPGQGLEWIGEINPGNVRTNYNENFRNKATLTVDKSSTTAYMQLRSLTSADSAVYYCTVVFYGEPYFPYWGQGTLVTVSA VL: QIVLTQSPAIMSASLGERVTMTCTASSSVSSSYFHWYQQKPGSSPKLWIYRTSNLASGVPGRFSGSGSGTSYSLTISSMEAEDAATYYCHQFHRSPLTFGAGTKLELK",no binding (tested: 100 nM),no binding (tested: 100 nM),0.4,0.1,0.1,1.3,0.9,0.4,1.2,11.1,0.3,1.8

# The remaining lines, values ahead:
binding result [1],binding result [2],"IC90, IL-8 release, NCI/ADR-RES cells, trun-IL-36a [3] [nM]","IC90, IL-8 release, NCI/ADR-RES cells, trun-IL-36b [3] [nM]","IC90, IL-8 release, NCI/ADR-RES cells, trun-IL-36g [3] [nM]","IC90, pNFκB, NCI/ADR-RES cells, trun-IL-36a [3] [nM]","IC90, pNFκB, NCI/ADR-RES cells, trun-IL-36b [3] [nM]","IC90, pNFκB, NCI/ADR-RES cells, trun-IL-36g [3] [nM]","IC90, IL-8 release, human primary keratinocytes (NHK), trun-IL-36a [4] [nM]","IC90, IL-8 release, human primary keratinocytes (NHK), trun-IL-36b [4] [nM]","IC90, IL-8 release, human primary keratinocytes (NHK), trun-IL-36g [4] [nM]","IC90, pNFκB, human primary keratinocytes (NHK), trun-IL-36b [4] [nM]",Binder
no binding (tested: 100 nM),no binding (tested: 100 nM),,,,,,,,,,,"chimeric antibody of 172C8 (antibody, V domains shown, No own label printed; also called chimeric 172C8) VH: EVQLQQSGPELVKPGASVKLSCKASGYTFTDNYMNWVRQSHGKSLEWIGRVNPSNGDTKYNQNFKGKATLTVDKSLSTAYMQLNGLTSEDSAVYYCGRTKNFYSSYSYDDAMDYWGQGTSVTVSS VL: DIQMTQSPASQSASLGESVTFTCLASQTIGTWLAWYQQRPGKSPQLLIYAATSLADGVPSRFSGSGSGTQFSFNIRSLQAEDFASYYCQQVYTTPLTFGGGTKLEIK"
no binding (tested: 100 nM),no binding (tested: 100 nM),0.7,0.4,0.4,2.1,0.9,1.8,29.7,49.3,3.6,8.3,"chimeric antibody C73C5 (antibody, V domains shown, Mouse variable domains of 73C5 on human constant domains (hu IgG1KO/kappa); also called chimeric 73C5) VH: QVQLKESGPGLVAPSQSLSITCTVSGFSLTNYAVHWVRQFPGKGLEWLGVIWSDGSTDFNAPFKSRLSINKDNSKSQVFFKMNSLQIDDTAIYYCARKGGYSGSWFAYWGQGTLVTVSA VL: DIVMTQSQKFLSTSVGVRVSVTCKASQDVGTNVLWYQQKIGQSPKPLIYSASYRHSGVPDRFTGSGSGTDFTLIISNVQSEDLAEYFCQQYSRYPLTFGPGTKLELK"
no binding (tested: 100 nM),no binding (tested: 100 nM),,,,,,,,,,,"chimeric antibody of 73F6 (antibody, V domains shown, No own label printed; also called chimeric 73F6) VH: QVQLKESGPGLVAPSQSLSITCTVSGFSLTNYAVHWVRQFPGKGLEWLGVIWSDGSTDYNAPFKSRLSINKDNSKSQVFFKMNSLQTDDTAIYYCARKGGYSGSWFAYWGQGTLVTVSA VL: DIVMTQSQKFLSTSVGVRVSVTCKASQDVGTNVLWYQQKIGQSPKALIYSASYRHSGVPDRFTGSGSGTDFTLIITNVQSEDLAEYFCQQYSRYPLTFGPGTKLELK"
no binding (tested: 100 nM),no binding (tested: 100 nM),,,,,,,23.4,87,1.2,7.1,"chimeric antibody C81A1 (antibody, V domains shown, Mouse variable domains of 81A1 on human constant domains (hu IgG1KO/kappa); also called chimeric 81A1) VH: QVQLKESGPGLVAPSQSLFITCTVSGFSLSSYEINWVRQVPGKGLEWLGVIWTGITTNYNSALISRLSISKDNSKSLVFLKMNSLQTDDTAIYYCARGTGTGFYYAMDYWGQGTSVTVSS VL: DIQMTQTTSSLSASLGDRVTISCRASQDIYKYLNWYQQKPDGTLKLLIYYTSGLHSGVPSRFSGSGSGTDFSLTISNLEPEDIATYFCQQDSKFPWTFGGDTKLEIK"
